# According to patent publication US20160109449A1 (JULIUS MAXIMILIANS UNIVERSITAET WUERZBURG, published 2016):
# T1: IsaA oligopeptide SEQ ID NO: 13 (Staphylococcus aureus)
# T1 sequence (peptide): TGYAAGTGHQAHAAE
# T2: IsaA oligopeptide SEQ ID NO: 16 (Staphylococcus aureus)
# T2 sequence (peptide): AAEVNVDQAHLVDLA
# T3: IsaA oligopeptide SEQ ID NO: 60 (Staphylococcus aureus)
# T3 sequence (peptide): GWGPTNTVDQQINAA
# T4: IsaA oligopeptide SEQ ID NO: 29 (Staphylococcus aureus)
# T4 sequence (peptide): SWSYEAANGQTAGFS
# T5: IsaA oligopeptide SEQ ID NO: 30 (Staphylococcus aureus)
# T5 sequence (peptide): EAANGQTAGFSNVAG
# T6: IsaA oligopeptide SEQ ID NO: 14 (Staphylococcus aureus)
# T6 sequence (peptide): AGTGHQAHAAEVNVD
# T7: IsaA oligopeptide SEQ ID NO: 28 (Staphylococcus aureus)
# T7 sequence (peptide): GTTWSWSYEAANGQT
# T8: IsaA oligopeptide SEQ ID NO: 36 (Staphylococcus aureus)
# T8 sequence (peptide): GSDVQSVSYNAQSSN
# T9: IsaA oligopeptide SEQ ID NO: 31 (Staphylococcus aureus)
# T9 sequence (peptide): GQTAGFSNVAGADYT
# T10: recombinant IsaA protein of Staphylococcus aureus (29 kDa immunodominant antigen IsaA) (Staphylococcus aureus, UniProt Q2FV52 30-233, limits assumed)
# T10 construct: Coated as rIsaA in the ELISA; In the first SPR experiment it was N-biotinylated with sulfo-NHS-LC-biotin (mostly at a single site) and immobilised on streptavidin; In the second SPR experiment it was the analyte in solution; also called rIsaA; 29 kDa IsaA antigen
# T10 sequence (looked up): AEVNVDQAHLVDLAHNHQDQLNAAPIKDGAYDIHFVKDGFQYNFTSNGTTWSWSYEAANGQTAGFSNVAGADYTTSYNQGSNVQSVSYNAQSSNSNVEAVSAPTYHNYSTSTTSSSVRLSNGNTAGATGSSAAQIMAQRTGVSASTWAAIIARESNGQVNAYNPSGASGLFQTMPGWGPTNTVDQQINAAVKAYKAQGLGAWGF
# B1: monoclonal antibody MAB-UK-66 secreted by hybridoma cell line DSM ACC2987 (antibody, V domains shown)
# VH: DVKLVESGGGLVKLGGSLKLSCSASGFTFSNYYMSWVRQTPEKRLELVADINGNGGSTYYPDTVKGRFTISRDNAKNTLYLQMSSLKSEDTALYYCVRRGGYYALDYWGQGTTVTVSS
# VL: DVVMTQTPLSLPVSLGDQASISCRSSQSLVHINGNTYLHWYLQKPGQSPKLLIYRVSNRFSGVPDRFSGSGSGTDFTLKISRVEAEDLGVYFCSQSTHVPWTFGGGTKLELKR
# notes: Monoclonal mouse antibody from a hybridoma; Detected with anti-mouse IgG; also called antibodies secreted by cell line DSM ACC2987; anti-IsaA MAB
# Columns and labels:
# [1] = molecular target: IsaA oligopeptide SEQ ID NO: 41 (Staphylococcus aureus); experiment: peptide array on glass slide, fluorescent secondary antibody
# [2] = molecular target: IsaA oligopeptide SEQ ID NO: 35 (Staphylococcus aureus); experiment: as above
# [3] = molecular target: IsaA oligopeptide SEQ ID NO: 52 (Staphylococcus aureus); experiment: as above
# [4] = molecular target: T1, IsaA oligopeptide SEQ ID NO: 13 (Staphylococcus aureus); experiment: as above
# [5] = molecular target: IsaA oligopeptide SEQ ID NO: 19 (Staphylococcus aureus); experiment: as above
# [6] = molecular target: T2, IsaA oligopeptide SEQ ID NO: 16 (Staphylococcus aureus); experiment: as above
# [7] = molecular target: T3, IsaA oligopeptide SEQ ID NO: 60 (Staphylococcus aureus); experiment: as above
# [8] = molecular target: IsaA oligopeptide SEQ ID NO: 57 (Staphylococcus aureus); experiment: as above
# [9] = molecular target: IsaA oligopeptide SEQ ID NO: 17 (Staphylococcus aureus); experiment: as above
# [10] = molecular target: IsaA oligopeptide SEQ ID NO: 40 (Staphylococcus aureus); experiment: as above
# [11] = molecular target: IsaA oligopeptide SEQ ID NO: 55 (Staphylococcus aureus); experiment: as above
# [12] = molecular target: IsaA oligopeptide SEQ ID NO: 10 (Staphylococcus aureus); experiment: as above
# [13] = molecular target: IsaA oligopeptide SEQ ID NO: 39 (Staphylococcus aureus); experiment: as above
# [14] = molecular target: IsaA oligopeptide SEQ ID NO: 49 (Staphylococcus aureus); experiment: as above
# [15] = molecular target: IsaA oligopeptide SEQ ID NO: 18 (Staphylococcus aureus); experiment: as above
# [16] = molecular target: T4, IsaA oligopeptide SEQ ID NO: 29 (Staphylococcus aureus); experiment: as above
# [17] = molecular target: IsaA oligopeptide SEQ ID NO: 21 (Staphylococcus aureus); experiment: as above
# [18] = molecular target: IsaA oligopeptide SEQ ID NO: 46 (Staphylococcus aureus); experiment: as above
# [19] = molecular target: IsaA oligopeptide SEQ ID NO: 15 (Staphylococcus aureus); experiment: as above
# [20] = molecular target: IsaA oligopeptide SEQ ID NO: 11 (Staphylococcus aureus); experiment: as above
# [21] = molecular target: T5, IsaA oligopeptide SEQ ID NO: 30 (Staphylococcus aureus); experiment: as above
# [22] = molecular target: IsaA oligopeptide SEQ ID NO: 54 (Staphylococcus aureus); experiment: as above
# [23] = molecular target: T6, IsaA oligopeptide SEQ ID NO: 14 (Staphylococcus aureus); experiment: as above
# [24] = molecular target: IsaA oligopeptide SEQ ID NO: 58 (Staphylococcus aureus); experiment: as above
# [25] = molecular target: IsaA oligopeptide SEQ ID NO: 64 (Staphylococcus aureus); experiment: as above
# [26] = molecular target: IsaA oligopeptide SEQ ID NO: 56 (Staphylococcus aureus); experiment: as above
# [27] = molecular target: IsaA oligopeptide SEQ ID NO: 12 (Staphylococcus aureus); experiment: as above
# [28] = molecular target: IsaA oligopeptide SEQ ID NO: 24 (Staphylococcus aureus); experiment: as above
# [29] = molecular target: IsaA oligopeptide SEQ ID NO: 45 (Staphylococcus aureus); experiment: as above
# [30] = molecular target: T7, IsaA oligopeptide SEQ ID NO: 28 (Staphylococcus aureus); experiment: as above
# [31] = molecular target: IsaA oligopeptide SEQ ID NO: 50 (Staphylococcus aureus); experiment: as above
# [32] = molecular target: IsaA oligopeptide SEQ ID NO: 34 (Staphylococcus aureus); experiment: as above
# [33] = molecular target: IsaA oligopeptide SEQ ID NO: 32 (Staphylococcus aureus); experiment: as above
# [34] = molecular target: T8, IsaA oligopeptide SEQ ID NO: 36 (Staphylococcus aureus); experiment: as above
# [35] = molecular target: T9, IsaA oligopeptide SEQ ID NO: 31 (Staphylococcus aureus); experiment: as above
# [36] = molecular target: IsaA oligopeptide SEQ ID NO: 42 (Staphylococcus aureus); experiment: as above
# [37] = molecular target: T10, recombinant IsaA protein of …; experiment: SPR (BIACORE 2000), antibody captured on anti-mouse Fc surface, IsaA as analyte, 1:1 Langmuir fit
# Experimental: A blank anti mouse Fc surface was used as control surface for monitoring unspecific binding and performing reference subtraction. Interaction analyses were performed using HBS-EP buffer (10 mM HEPES pH 7.4, 150 mM NaCl, 3 mM EDTA, 0.005% Tween 20). Sensorgrams were recorded at a flow rate of 30 μl/min at 25° C. Association and dissociation times were set to 3 and 15 min, respectively.
# The anti-Fc capturing surfaces were regenerated after each cycle using short pulses of 10 mM glycine pH 1.7.
# Affinities and rate constants for association (kₒₙ) and for dissociation (koff) were calculated using the BIAevaluation software 4.0.1 fitting the obtained sensorgrams to a 1:1 Langmuir binding model.
molecule,measurement,setting,value
control antibodies (peptide array) (antibody),Binding (fluorescence intensity),[1],29.3
same,Binding (fluorescence intensity),[2],110
same,Binding (fluorescence intensity),[3],-60
same,Binding (fluorescence intensity),[4],367
same,Binding (fluorescence intensity),[5],83.7
same,Binding (fluorescence intensity),[6],117
same,Binding (fluorescence intensity),[7],18.7
same,Binding (fluorescence intensity),[8],313
same,Binding (fluorescence intensity),[9],48
same,Binding (fluorescence intensity),[10],-27
same,Binding (fluorescence intensity),[11],36
same,Binding (fluorescence intensity),[12],160
same,Binding (fluorescence intensity),[13],109
same,Binding (fluorescence intensity),[14],40
same,Binding (fluorescence intensity),[15],-119
same,Binding (fluorescence intensity),[16],85.7
same,Binding (fluorescence intensity),[17],182
same,Binding (fluorescence intensity),[18],-24.3
same,Binding (fluorescence intensity),[19],107
same,Binding (fluorescence intensity),[20],-11
same,Binding (fluorescence intensity),[21],-7
same,Binding (fluorescence intensity),[22],-51.7
same,Binding (fluorescence intensity),[23],-35
same,Binding (fluorescence intensity),[24],46.3
same,Binding (fluorescence intensity),[25],42
same,Binding (fluorescence intensity),[26],-17.3
same,Binding (fluorescence intensity),[27],-22
same,Binding (fluorescence intensity),[28],79.3
same,Binding (fluorescence intensity),[29],-4.3
same,Binding (fluorescence intensity),[30],77.3
same,Binding (fluorescence intensity),[31],-49.7
same,Binding (fluorescence intensity),[32],98.7
same,Binding (fluorescence intensity),[33],98.3
same,Binding (fluorescence intensity),[34],-14.3
same,Binding (fluorescence intensity),[35],-20
same,Binding (fluorescence intensity),[36],35.7
B1,Kd,[37],1.7 nM
same,koff,[37],0.00029 s⁻¹
same,kon,[37],180000 M⁻¹ s⁻¹
same,Binding (fluorescence intensity),[4],5750
same,Binding (fluorescence intensity),[6],1950
same,Binding (fluorescence intensity),[7],3070
same,Binding (fluorescence intensity),[10],6010
same,Binding (fluorescence intensity),[16],2490
same,Binding (fluorescence intensity),[21],1670
same,Binding (fluorescence intensity),[23],3190
same,Binding (fluorescence intensity),[30],3170
same,Binding (fluorescence intensity),[34],2740
same,Binding (fluorescence intensity),[35],2940
